In this experiment the target is T1, IRF3 (human (endogenous in HEK293T)), Q14653.
T1 chain: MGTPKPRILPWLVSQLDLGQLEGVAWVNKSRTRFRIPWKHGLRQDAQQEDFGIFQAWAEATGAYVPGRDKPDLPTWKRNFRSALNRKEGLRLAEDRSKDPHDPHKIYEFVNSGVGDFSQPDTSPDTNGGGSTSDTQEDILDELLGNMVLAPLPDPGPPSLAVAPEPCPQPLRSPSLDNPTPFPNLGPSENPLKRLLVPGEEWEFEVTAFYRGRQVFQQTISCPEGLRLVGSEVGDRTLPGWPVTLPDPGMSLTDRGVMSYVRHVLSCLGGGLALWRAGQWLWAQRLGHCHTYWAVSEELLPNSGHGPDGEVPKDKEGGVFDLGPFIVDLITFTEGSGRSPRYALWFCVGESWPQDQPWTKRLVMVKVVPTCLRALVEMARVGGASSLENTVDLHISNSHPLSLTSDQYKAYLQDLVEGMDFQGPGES
As to the kind of experiment: native gel or EMSA; cell-free assay: HEK293T S1 crude lysate with vRNA, 30 °C, 1 h; Native-PAGE and immunoblotting of IRF3. Conditions: remark: other sources report otherwise. In general terms: A gel shift assay detects complexes by their altered migration in electrophoresis.

B1: IRF3, Q14653 1-427 (natural protein)
chain: MGTPKPRILPWLVSQLDLGQLEGVAWVNKSRTRFRIPWKHGLRQDAQQEDFGIFQAWAEATGAYVPGRDKPDLPTWKRNFRSALNRKEGLRLAEDRSKDPHDPHKIYEFVNSGVGDFSQPDTSPDTNGGGSTSDTQEDILDELLGNMVLAPLPDPGPPSLAVAPEPCPQPLRSPSLDNPTPFPNLGPSENPLKRLLVPGEEWEFEVTAFYRGRQVFQQTISCPEGLRLVGSEVGDRTLPGWPVTLPDPGMSLTDRGVMSYVRHVLSCLGGGLALWRAGQWLWAQRLGHCHTYWAVSEELLPNSGHGPDGEVPKDKEGGVFDLGPFIVDLITFTEGSGRSPRYALWFCVGESWPQDQPWTKRLVMVKVVPTCLRALVEMARVGGASSLENTVDLHISNSHPLSLTSDQYKAYLQDLVEGMDFQGPGES
By stoichiometry N is commonly meant the number of molecules, sites or subunits per partner or assembly. In turn, B1 registered a stoichiometry N of 2.

For the origin of these results see paper PMC5418627.
